# Measured values taken from publication PMC7909569, “Unique Cellular and Biochemical Features of Human Mitochondrial Peroxiredoxin 3 Establish the Molecular Basis for Its Specific Reaction with Thiostrepton” (Antioxidants, 2021).
# What was measured:
# [1] = target: the molecule itself; test: SEC-MALS; reduced samples (10 mM DTT), 2 mg/mL (90–93 µM) PRX, 50 mM HEPES, 100 mM NaCl, pH 7.0, 7.5 or 8.0 (PRX3 only pH 7.5 and 8.0); TSK Gel 4000 SW column run without reducing agents; (do)decamer against dimers
# [2] = target: the molecule itself; test: SEC-MALS; engineered dimers, reduced (10 mM DTT) or oxidized (1.2 equivalents H2O2), 2 mg/mL, all pH values tested (7.0, 7.5, 8.0)
# [3] = target: the molecule itself; test: SEC-MALS; peroxide titration: pre-reduced PRX3 (93 µM), DTT removed, pH 8.0, 0 H2O2 (fully reduced)
# [4] = target: the molecule itself; test: SEC-MALS; oxidized samples (1.2 equivalents of H2O2), 2 mg/mL PRX, 50 mM HEPES, 100 mM NaCl, pH 7.5; (do)decamer against dimers
# [5] = target: the molecule itself; test: SEC-MALS; peroxide titration: pre-reduced PRX2 (100 µM), pH 7.4, 100 µM H2O2 (1 equivalence, fully oxidized)
# [6] = target: the molecule itself; test: SEC-MALS; oxidized samples (1.2 equivalents of H2O2), 2 mg/mL PRX, 50 mM HEPES, 100 mM NaCl, pH 8.0; (do)decamer against dimers
protein,measurement,setting,value
"Wild-type human PRX1 (enzyme, UniProt Q06830 1-199, looked up, peroxiredoxin 1 (PRX1), human, wild type, untagged, no extra residues; Tested reduced (DTT) and oxidised to the disulfide (H2O2); also called peroxiredoxin 1; WT PRX1) MSSGNAKIGHPAPNFKATAVMPDGQFKDISLSDYKGKYVVFFFYPLDFTFVCPTEIIAFSDRAEEFKKLNCQVIGASVDSHFCHLAWVNTPKKQGGLGPMNIPLVSDPKRTIAQDYGVLKADEGISFRGLFIIDDKGILRQITVNDLPVGRSVDETLRLVQAFQFTDKHGEVCPAGWKPGSDTIKPDVQKSKEYFSKQK",stoichiometry N,[1],10
"PRX1 C83E (enzyme, human, UniProt Q06830 1-199, looked up, peroxiredoxin 1 (PRX1), human, with C83E in the dimer-dimer interface, untagged; also called engineered dimer of PRX1; dimeric version of PRX1) MSSGNAKIGHPAPNFKATAVMPDGQFKDISLSDYKGKYVVFFFYPLDFTFVCPTEIIAFSDRAEEFKKLNCQVIGASVDSHFEHLAWVNTPKKQGGLGPMNIPLVSDPKRTIAQDYGVLKADEGISFRGLFIIDDKGILRQITVNDLPVGRSVDETLRLVQAFQFTDKHGEVCPAGWKPGSDTIKPDVQKSKEYFSKQK",stoichiometry N,[2],2
"Untagged wild-type PRX3 (residues 62–256) (enzyme, human, UniProt P30048 62-256, looked up, peroxiredoxin 3 (PRX3), human, mitochondrial, residues 62–256, wild type, untagged; Stored oxidised to the disulfide (1.5 equivalents H2O2); tested reduced, partially oxidised and oxidised; also called peroxiredoxin 3; mitochondrial peroxiredoxin 3; not shown: Intein, N-terminal, cleaved) APAVTQHAPYFKGTAVVNGEFKDLSLDDFKGKYLVLFFYPLDFTFVCPTEIVAFSDKANEFHDVNCEVVAVSVDSHFSHLAWINTPRKNGGLGHMNIALLSDLTKQISRDYGVLLEGSGLALRGLFIIDPNGVIKHLSVNDLPVGRSVEETLRLVKAFQYVETHGEVCPANWTPDSPTIKPSPAASKEYFQKVNQ",stoichiometry N,[3],12
same,stoichiometry N,[4],2
"PRX3-S139E/A142E (enzyme, human, UniProt P30048 62-256, looked up, peroxiredoxin 3 (PRX3), human, with S139E and A142E in the dimer-dimer interface; The wild-type construct is residues 62–256; The methods call the N-terminal His-tag non-cleavable; also called engineered dimer of PRX3; PRX3 EE) APAVTQHAPYFKGTAVVNGEFKDLSLDDFKGKYLVLFFYPLDFTFVCPTEIVAFSDKANEFHDVNCEVVAVSVDSHFEHLEWINTPRKNGGLGHMNIALLSDLTKQISRDYGVLLEGSGLALRGLFIIDPNGVIKHLSVNDLPVGRSVEETLRLVKAFQYVETHGEVCPANWTPDSPTIKPSPAASKEYFQKVNQ",stoichiometry N,[2],2
"PRX2-T82E (enzyme, human, UniProt P32119 1-198, looked up, peroxiredoxin 2 (PRX2), human, with T82E in the dimer-dimer interface; The methods call the N-terminal His-tag non-cleavable; also called engineered dimer of PRX2; dimeric version of PRX2) MASGNARIGKPAPDFKATAVVDGAFKEVKLSDYKGKYVVLFFYPLDFTFVCPTEIIAFSNRAEDFRKLGCEVLGVSVDSQFEHLAWINTPRKEGGLGPLNIPLLADVTRRLSEDYGVLKTDEGIAYRGLFIIDGKGVLRQITVNDLPVGRSVDEALRLVQAFQYTDEHGEVCPAGWKPGSDTIKPNVDDSKEYFSKHN",stoichiometry N,[2],2
"Wild-type human PRX2 (enzyme, UniProt P32119 1-198, looked up, peroxiredoxin 2 (PRX2), human, wild type, untagged, no extra residues; Tested reduced (DTT) and oxidised to the disulfide (H2O2); also called peroxiredoxin 2; WT PRX2) MASGNARIGKPAPDFKATAVVDGAFKEVKLSDYKGKYVVLFFYPLDFTFVCPTEIIAFSNRAEDFRKLGCEVLGVSVDSQFTHLAWINTPRKEGGLGPLNIPLLADVTRRLSEDYGVLKTDEGIAYRGLFIIDGKGVLRQITVNDLPVGRSVDEALRLVQAFQYTDEHGEVCPAGWKPGSDTIKPNVDDSKEYFSKHN",stoichiometry N,[5],10
same,stoichiometry N,[6],2
